Experimental data from PMC12312386, “Multiple transactivation domains of EZH2 bind to the TAZ2 domain of p300 and stimulate the acetyltransferase function of p300” (Biochemical Journal, 2025).

Tests used:
[1] = system: FLAG-HA-tagged p300 catalytic core (aa 1035–1830 of p300); experiment: Histone acetyltransferase (HAT) assay, Western blot, recombinant nucleosome substrate; format: biochemical; conditions: 1 μg p300 core, 2.5, 5 or 10 μg GST-tagged TADs, 1 μg nucleosome, 15 min
Experimental: Histone acetyltransferase assay
For HAT assays, FLAG-HA-tagged p300 core (aa 1035–1830 of p300) in a pCDH vector was expressed in 293 T cells for two days. Cells were lysed in lysis buffer (50 mM Tris-HCl pH 7.5, 300 mM NaCl, 1.5 mM MgCl2, 1 mM EDTA, 1% Triton100, 10% glycerol, 1 mM PMSF, and protease inhibitors) and sonicated. Cell lysates were incubated with anti-Flag M2 beads (Sigma) at 4° for 4 h. The beads were then washed three times with buffer (50 mM Tris-HCl pH 7.5, 500 mM NaCl, 1.5 mM MgCl2, 0.2 mM EDTA, 0.1% NP40, 10% glycerol, and 1 mM PMSF), and the protein was eluted with elution buffer (50 mM Tris-HCl pH 7.5, 300 mM NaCl, 1 mM DTT, 10% glycerol, and 0.4 mg/ml Flag peptide).
GST-tagged EZH2TADs (aa 119–267), EZH1TADs (aa 120–280), F176A/F237A EZH1TADs (EZH1 2A), and F146A/F176A/F237A/Y257A EZH1TADs (EZH1 4A) constructs in the pGEX-6p-1 vector were transformed into RosettaTM2 (DE3) pLysS competent cells (Novagen). Protein production was induced by incubating with 0.4 mM IPTG at 16°C for 20 h in LB. Cell pellets were resuspended in lysis buffer (50 mM Tris-HCl pH 8.0, 300 mM NaCl, 1 mM PMSF, and 1 × cOmpleteTM EDTA-free Protease Inhibitor Cocktail) and lysed by sonication. Lysates were centrifuged at 17,000 g for 15 min, and supernatants were incubated with Glutathione Sepharose® 4B beads (Sigma) at 4°C for 2 h. Beads were washed with lysis buffer twice, and proteins were eluted with elution buffer (50 mM Tris-HCl pH 8.0, 150 mM NaCl, 10% glycerol, and 15 mg/ml GSH).
Purified FLAG-HA-tagged p300 catalytic core fragment (1 μg) was incubated with increasing amounts of GST-tagged EZH2TADs and GST-tagged EZH1TADs (2.5, 5, or 10 μg) and the nucleosome (1 μg) in HAT reaction buffer (50 mM Tris-HCl pH 8.0, 100 mM NaCl, 10% glycerol, 1 mM DTT, […], and 1× cOmplete EDTA-free Protease Inhibitor Cocktail) at 30°C for 15 min. Reactions were stopped by boiling at 95°C for 5 min in 2×SDS loading buffer, and samples were analyzed by SDS-PAGE and Western blot. […]

GST-p300TAZ2 = experiment: Mass photometry (MP) of GST-p300TAZ2 with EZH2TAD constructs; format: binding, human; conditions: 20 nM GST-p300TAZ2 alone
Experimental: [37]. […] After induction with isopropyl b-D-1-thiogalactopyranoside (IPTG), harvesting, and lysis in buffer [50 mM Tris pH 7.0, 1 M NaCl, 5 mM dithiothreitol (DTT), 1 mM phenylmethanesulfonylfluoride (PMSF) and DNase] by sonication, the proteins were purified on glutathione agarose beads (Pierce) and eluted with buffer containing reduced L-glutathione (Fisher). The GST tag was either cleaved with TEV protease overnight at 22°C or kept intact during subsequent purification steps. […] The EZH2TAD1 ([…]) construct was generated by deletion using Q5 Hot Start High-Fidelity kit (NEB) and confirmed by DNA sequencing. Both constructs were expressed in E. coli Rosetta-2 (DE3) pLysS cells grown in LB media and induced at an OD600 of 0.6-0.8 with 1 mM IPTG for 16 h at 16°C. Cells were harvested by centrifugation, suspended in buffer (50 mM Tris pH 7.5, 500 mM NaCl, 1% CHAPS, 2 mM DTT, 1 mM PMSF, Roche cOmplete Protease Inhibitor Cocktail, and DNase), and lysed by sonication. […] When necessary, EZH2TAD constructs were further purified using a Superdex 200 Increase 10/300 GL column (Cytiva) with monitoring at 205 and 280 nm. […] To overcome the minimum size limit, a GST-fusion construct was used for one of the components in each sample. […] Ten microliter of each sample was loaded into the sample wells of the silicon cassettes assembled onto MassGlass UC coverslips (Refeyn, Ltd.). […]

B1: EZH1 WT: GST-tagged EZH1TAD1-TAD2-TAD3 (aa 120–280) (protein)
chain: NFMVEDETVLCNIPYMGDEVKEEDETFIEELINNYDGKVHGEEEMIPGSVLISDAVFLELVDALNQYSDEEEEGHNDTSDGKQDDSKEDLPVTRKRKRHAIEGNKKSSKKQFPNDMIFSAIASMFPENGVPDDMKERYRELTEMSDPNALPPQCTPNIDGP
modifications: left off: GST, end not stated, kept
Question: How did the “H3K18 acetylation by p300 core” value ([1]; 100 mM acetyl-CoA, 50 mM Tris-HCl pH 8.0, 30°C, H3K18ac Western blot) turn out when B1 was run?
Answer: dose-dependent increase in H3K18 and H3K27 acetylation

Question: And the “H3K27 acetylation by p300 core” value ([1]; 100 mM acetyl-CoA, 50 mM Tris-HCl pH 8.0, 30°C, H3K27ac Western blot)?
Answer: dose-dependent increase in H3K18 and H3K27 acetylation

B2: EZH1 2A: GST-tagged F176A/F237A mutant of EZH1TAD1-TAD2-TAD3 (aa 120–280) (protein)
chain: NFMVEDETVLCNIPYMGDEVKEEDETFIEELINNYDGKVHGEEEMIPGSVLISDAVALELVDALNQYSDEEEEGHNDTSDGKQDDSKEDLPVTRKRKRHAIEGNKKSSKKQFPNDMIASAIASMFPENGVPDDMKERYRELTEMSDPNALPPQCTPNIDGP
modifications: left off: GST, end not stated, kept
Question: Which “stimulation of p300 enzymatic activity” value ([1]; mutants compared with EZH1 WT, 30°C, H3K18ac and H3K27ac Western blot) does the source give for B2 here?
Answer: stimulation of the p300 enzymatic activity was decreased

B3: GST-p300TAZ2: GST-tagged human p300 TAZ2 domain, aa 1722–1812 (protein)
chain: AWTQSPGDSRRLSIQRCIQSLVHACQCRNANCSLPSCQKMKRVVQHTKGCKRKTNGGCPICKQLIALCCYHAKHCQENKCPVPFCLNIKQK
modifications: left off: GST, end not stated, kept
Question: For B3, which “oligomeric state in the apo-state” value (GST-p300TAZ2) is on record?
Answer: exists in a dimeric form

Question: What about the “MP peak, apo GST-p300TAZ2” value (GST-p300TAZ2; Figure 5a, room temperature, 50 mM Tris pH 7.5, 150 mM NaCl, 5 mM DTT) of the same molecule?
Answer: ~ 80 kDa
